Measurements taken from paper PMC6294903 (Proceedings of the National Academy of Sciences of the …, 2018).

T1: DnaJ C268A (Salmonella enterica serovar Typhimurium, UniProt P0A1G7 1-379, C268A)
T1 sequence (looked up): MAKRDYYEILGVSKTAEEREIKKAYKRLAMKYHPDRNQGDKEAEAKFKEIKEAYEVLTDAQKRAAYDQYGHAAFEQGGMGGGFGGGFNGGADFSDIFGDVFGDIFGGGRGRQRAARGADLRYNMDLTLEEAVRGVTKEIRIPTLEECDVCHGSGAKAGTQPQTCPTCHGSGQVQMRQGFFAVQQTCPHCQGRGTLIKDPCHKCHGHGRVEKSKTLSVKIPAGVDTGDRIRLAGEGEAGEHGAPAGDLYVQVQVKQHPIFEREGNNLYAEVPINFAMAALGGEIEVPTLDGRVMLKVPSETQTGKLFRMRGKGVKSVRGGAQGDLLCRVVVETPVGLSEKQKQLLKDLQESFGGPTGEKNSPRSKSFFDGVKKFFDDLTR


Columns and labels:
[1] = biological target: DnaJ-6His (Salmonella enterica serovar Typhimurium) (UniProt P0A1G7); assay: MST
DnaJ C268A = biological target: T1, DnaJ C268A; assay: pull-down

Row | Molecule | Kd [1] | binding result (DnaJ C268A)
1 | oxidized DksA (recombinant, GST removed) (from UniProt P0A1G5 1-151) (natural protein) | 65 nM | –
2 | GST-DksA (wild type, pull-down done in the absence of DTT) (natural protein, Salmonella enterica serovar Typhimurium, UniProt P0A1G5 1-151, looked up) MQEGQNRKTSSLSILAIAGVEPYQEKPGEEYMNEAQLSHFKRILEAWRNQLRDEVDRTVTHMQDEAANFPDPVDRAAQEEEFSLELRNRDRERKLIKKIEKTLKKVEDEDFGYCESCGVEIGIRRLEARPTADLCIDCKTLAEIREKQMAG | – | binds
